We go through one protein from paper PMC4319037, “The B-type Channel Is a Major Route for Iron Entry into the Ferroxidase Center and Central Cavity of Bacterioferritin*” (The Journal of Biological Chemistry, 2014).

This data set deals with the molecule itself. The data set is described as follows: crystal structure; hanging-drop vapor diffusion; ammonium sulfate (50-80% saturated), NaCl 0.1 M, Tris HCl 20 mM pH 7.2; BFR D132F with <1 heme/24-mer; 12 monomers in the asymmetric unit; 2.0 Å.

B1: E. coli bacterioferritin D132F variant (natural protein)
chain: not shown
notes: Bacterioferritin (BFR), E. coli, bfr gene in pET21a (pALN1) with D132F made by QuikChange; the model holds '12 complete monomers' in the asymmetric unit (1896 C-alpha atoms for the 12-mer, i.e. 158 per chain); Crystallised with <1 heme/24-mer, free of metal ions (apo); no tag is mentioned; also called BFR D132F; apo-D132F variant; copies: 24
Turning to B1, the binding result is recorded as “binds”.
